Read-outs that look alike come from different tables or passages of the source. One block for each binder: values may come before it.
What was measured:
Test in all cases: cell-based or functional assay
[1] = biological target: T1, FGF receptor/BKL complex on HEK293 cells overexpressing human beta-klotho (BKL) (human, UniProt Q86Z14 1-1044)
[2] = biological target: T2, FGFR1c receptor/BKL complex on differentiated mouse 3T3-L1 adipocytes (mouse, UniProt P16092 22-822; Q99N32 1-1043)
[3] = biological target: T1, FGF receptor/BKL complex on HEK293 …; remark: listed apart in the source
[4] = biological target: T2, FGFR1c receptor/BKL complex on …; remark: listed apart in the source
[5] = biological target: T1, FGF receptor/BKL complex on HEK293 …; remark: listed apart in the source

T1 sequence (Q86Z14 whole entry, one chain of several): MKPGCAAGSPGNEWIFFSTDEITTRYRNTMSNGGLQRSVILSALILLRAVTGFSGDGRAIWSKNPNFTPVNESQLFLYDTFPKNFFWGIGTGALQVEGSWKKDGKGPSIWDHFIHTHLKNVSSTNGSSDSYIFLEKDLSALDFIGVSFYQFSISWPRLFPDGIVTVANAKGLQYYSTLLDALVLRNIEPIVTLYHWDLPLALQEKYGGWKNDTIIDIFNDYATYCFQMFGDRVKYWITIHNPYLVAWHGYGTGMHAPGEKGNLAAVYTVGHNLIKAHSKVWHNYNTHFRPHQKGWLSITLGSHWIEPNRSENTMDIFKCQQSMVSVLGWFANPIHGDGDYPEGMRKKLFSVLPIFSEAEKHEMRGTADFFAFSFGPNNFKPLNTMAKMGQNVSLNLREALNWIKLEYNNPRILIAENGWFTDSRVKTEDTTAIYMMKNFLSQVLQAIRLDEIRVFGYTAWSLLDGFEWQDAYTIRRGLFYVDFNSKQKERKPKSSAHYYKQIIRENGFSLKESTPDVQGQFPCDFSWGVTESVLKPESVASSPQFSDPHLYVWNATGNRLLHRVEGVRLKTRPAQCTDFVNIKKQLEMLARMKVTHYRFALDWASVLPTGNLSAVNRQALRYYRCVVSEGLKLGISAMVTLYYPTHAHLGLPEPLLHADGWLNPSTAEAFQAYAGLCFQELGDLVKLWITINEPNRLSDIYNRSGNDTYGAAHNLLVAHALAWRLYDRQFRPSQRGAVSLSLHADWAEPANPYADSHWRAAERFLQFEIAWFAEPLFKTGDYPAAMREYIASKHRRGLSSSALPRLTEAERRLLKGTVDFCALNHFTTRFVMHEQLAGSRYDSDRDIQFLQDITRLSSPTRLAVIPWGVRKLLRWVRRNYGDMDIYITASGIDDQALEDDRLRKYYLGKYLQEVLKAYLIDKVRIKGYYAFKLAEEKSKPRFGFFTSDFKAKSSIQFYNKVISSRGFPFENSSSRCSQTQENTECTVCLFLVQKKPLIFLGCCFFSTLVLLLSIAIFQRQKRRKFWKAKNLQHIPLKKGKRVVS
T2 sequence (P16092 22-822, chain 1 of 2): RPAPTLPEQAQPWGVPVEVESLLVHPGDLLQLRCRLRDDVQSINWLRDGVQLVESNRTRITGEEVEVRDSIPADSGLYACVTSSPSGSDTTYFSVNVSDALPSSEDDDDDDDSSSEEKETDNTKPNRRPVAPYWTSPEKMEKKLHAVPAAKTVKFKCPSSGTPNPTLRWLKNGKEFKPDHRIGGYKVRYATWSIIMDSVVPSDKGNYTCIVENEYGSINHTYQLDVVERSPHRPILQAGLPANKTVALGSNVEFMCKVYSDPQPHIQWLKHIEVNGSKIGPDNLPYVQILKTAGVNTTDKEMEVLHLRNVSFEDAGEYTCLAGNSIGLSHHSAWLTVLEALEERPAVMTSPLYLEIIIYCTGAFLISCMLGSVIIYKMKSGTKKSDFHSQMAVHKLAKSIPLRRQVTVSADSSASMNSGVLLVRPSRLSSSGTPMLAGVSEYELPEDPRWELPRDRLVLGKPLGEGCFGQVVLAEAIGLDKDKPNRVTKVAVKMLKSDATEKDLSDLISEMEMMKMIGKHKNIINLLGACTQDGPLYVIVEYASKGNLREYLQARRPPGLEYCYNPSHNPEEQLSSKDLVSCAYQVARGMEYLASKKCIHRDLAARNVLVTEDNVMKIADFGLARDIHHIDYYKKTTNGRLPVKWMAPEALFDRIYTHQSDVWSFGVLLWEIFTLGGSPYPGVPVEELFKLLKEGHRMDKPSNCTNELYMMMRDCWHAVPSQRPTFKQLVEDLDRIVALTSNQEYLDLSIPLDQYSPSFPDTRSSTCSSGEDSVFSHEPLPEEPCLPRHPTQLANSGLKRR
T2 sequence (Q99N32 whole entry, chain 2 of 2): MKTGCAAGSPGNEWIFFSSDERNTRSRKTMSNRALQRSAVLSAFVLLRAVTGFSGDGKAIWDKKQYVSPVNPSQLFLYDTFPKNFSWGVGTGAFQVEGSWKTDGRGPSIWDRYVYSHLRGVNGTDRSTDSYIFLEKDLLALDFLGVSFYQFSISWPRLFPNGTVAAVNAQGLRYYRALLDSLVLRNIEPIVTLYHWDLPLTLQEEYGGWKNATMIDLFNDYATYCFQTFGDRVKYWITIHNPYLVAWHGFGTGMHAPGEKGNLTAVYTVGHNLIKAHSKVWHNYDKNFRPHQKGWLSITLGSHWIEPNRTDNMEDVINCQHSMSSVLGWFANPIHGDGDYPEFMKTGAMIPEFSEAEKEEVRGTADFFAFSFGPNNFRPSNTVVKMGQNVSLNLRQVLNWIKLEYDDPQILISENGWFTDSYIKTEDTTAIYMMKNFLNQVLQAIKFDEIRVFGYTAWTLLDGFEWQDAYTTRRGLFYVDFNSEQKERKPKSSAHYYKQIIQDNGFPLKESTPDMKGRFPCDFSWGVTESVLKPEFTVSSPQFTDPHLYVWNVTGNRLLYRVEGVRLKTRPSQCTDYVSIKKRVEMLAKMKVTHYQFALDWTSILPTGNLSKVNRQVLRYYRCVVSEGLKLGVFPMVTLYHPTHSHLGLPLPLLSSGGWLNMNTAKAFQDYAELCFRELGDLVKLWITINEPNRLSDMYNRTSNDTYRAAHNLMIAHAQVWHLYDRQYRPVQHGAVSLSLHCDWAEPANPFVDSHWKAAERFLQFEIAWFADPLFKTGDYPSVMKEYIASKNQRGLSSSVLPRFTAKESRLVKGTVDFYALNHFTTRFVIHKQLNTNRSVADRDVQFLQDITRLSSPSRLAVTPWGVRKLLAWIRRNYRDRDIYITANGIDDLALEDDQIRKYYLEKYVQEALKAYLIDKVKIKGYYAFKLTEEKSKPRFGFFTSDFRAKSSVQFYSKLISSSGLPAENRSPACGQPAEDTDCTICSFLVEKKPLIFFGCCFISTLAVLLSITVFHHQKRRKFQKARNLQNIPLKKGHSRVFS

EC50 (nM), pERK, HEK293/BKL cells [1]: 1.8 nM | Glucose uptake EC50 (nM), 3T3-L1 adipocytes [2]: 1.2 nM
B1: MetFGF21 (ligand)
chain: MHPIPDSSPLLQFGGQVRQRYLYTDDAQQTEAHLEIREDGTVGGAADQSPESLLQLKALKPGVIQILGVKTSRFLCQRPDGALYGSLHFDPEACSFRELLLEDGYNVYQSEAHGLPLHLPGNKSPHRDPAPRGPARFLPLPGLPPALPEPPGILAPQPPDVGSSDPLSMVGPSQGRSPSYAS

EC50 (0.1% HSA) (nM), pERK, HEK293/BKL cells [3]: 71 nM | EC50 (nM), pERK, HEK293/BKL cells [3]: 16 nM | Glucose uptake EC50 (nM), 3T3-L1 adipocytes [4]: 37 nM
B2: S{Beta-181}-[2-[2-[[2-[2-[2-[[2-[2-[2-[[(4S)-4-carboxy-4-(17-carboxyheptadecanoyl-amino)butanoyl]amino]ethoxy]ethoxy]acetyl]amino]ethoxy]ethoxy]acetyl]amino]-et … (ligand)
chain: MHPIPDSSPLLQFGGQVRQRYLYTDDAQQTEAHLEIREDGTVGGAADQSPESLLQLKALKPGVIQILGVKTSRFLCQRPDGALYGSLHFDPEACSFRELLLEDGYNVYQSEAHGLPLHLPGNKSPHRDPAPRGPARFLPLPGLPPALPEPPGILAPQPPDVGSSDPLSMVGPSQGRSPSYAC
modifications: Cys181 (numbering of mature human FGF21): side chain on the sulfur atom; protractor C18 diacid; reagent of Example 4.5

EC50 (nM), pERK, HEK293/BKL cells [5]: 8 nM
B3: Ala[Gln121,Leu168,Cys171]FGF21 (ligand)
chain: AHPIPDSSPLLQFGGQVRQRYLYTDDAQQTEAHLEIREDGTVGGAADQSPESLLQLKALKPGVIQILGVKTSRFLCQRPDGALYGSLHFDPEACSFRELLLEDGYNVYQSEAHGLPLHLPGQKSPHRDPAPRGPARFLPLPGLPPALPEPPGILAPQPPDVGSSDPLSLVGCSQGRSPSYAS
